± gives the standard error. For part of these data: Fewer inactive variants are shown than the library holds.
B1: glmS ribozyme (parent)
chain: AUAAAAGCGCCAGAACUACAGAAAUGUAGUUGACGAGGAGGAGGUUUAUCGAAUUUUCGGCGGAUGCCUCCAAA

Tests used:
Details in all cases: with glucosamine-6-phosphate
[1] = variants of: B1; test: kcat; higher = faster cleavage; RNA array
Outline: (§1)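 Over ~14 h at 37 °C, tiles were imaged as glucosamine-6-phosphate (40 μM to 10 mM) in HEPES/KCl/Mg(OAc)2 buffer flowed across sequenced MiSeq chips. The chips carried barcoded ribozyme variants transcribed in situ by E. coli RNA polymerase and tracked with a hybridised Cy3 probe. After normalisation to baseline and to non-cleaving reference variants, one- or two-exponential decay fits of per-tile medians gave kobs. kcat and KM followed from weighted Michaelis–Menten fits across concentrations.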

[2] = variants of: B1; test: KM; higher = weaker cofactor use; RNA array
Outline: as §1

[3] = variants of: B1; test: self-cleavage kobs at 640 uM GlcN6P; higher = faster cleavage; RNA array
Outline: as §1

[4] = variants of: B1; test: self-cleavage kobs at 2500 uM GlcN6P; higher = faster cleavage; RNA array
Outline: as §1

[5] = variants of: B1; test: self-cleavage kobs at 10000 uM GlcN6P; higher = faster cleavage; RNA array
Outline: as §1

[6] = variants of: B1; test: self-cleavage kobs at 40 uM GlcN6P; higher = faster cleavage; RNA array
Outline: as §1

[7] = variants of: B1; test: self-cleavage kobs at 160 uM GlcN6P; higher = faster cleavage; RNA array
Outline: as §1

Variant	kcat [1]	KM [2]	self-cleavage kobs at 640 uM GlcN6P [3]	self-cleavage kobs at 2500 uM GlcN6P [4]	self-cleavage kobs at 10000 uM GlcN6P [5]	self-cleavage kobs at 40 uM GlcN6P [6]	self-cleavage kobs at 160 uM GlcN6P [7]
A39U A64C	0.000269 ± 4.6e-05 s⁻¹	3410 ± 1100 µM	5.07e-05 ± 7e-06 s⁻¹	9.58e-05 ± 1.3e-05 s⁻¹	0.00021 ± 1.9e-05 s⁻¹		
G41U U65A	0.000223 ± 4.3e-05 s⁻¹	1090 ± 470 µM	8.03e-05 ± 8.5e-06 s⁻¹	0.000238 ± 3.1e-05 s⁻¹	0.000183 ± 2e-05 s⁻¹		
A42G A64G	0.024 ± 0.0071 s⁻¹	1370 ± 520 µM	0.00754 ± 0.0017 s⁻¹	0.0422 ± 0.015 s⁻¹	0.0194 ± 0.0055 s⁻¹	0.000694 ± 0.00014 s⁻¹	0.0024 ± 0.00059 s⁻¹
G40A A52G	0.000342 ± 4.4e-05 s⁻¹	1490 ± 450 µM	0.000102 ± 1.6e-05 s⁻¹	0.000251 ± 2.8e-05 s⁻¹	0.000277 ± 3e-05 s⁻¹		
G40A G66A	0.00833 ± 0.0037 s⁻¹		0.00165 ± 0.00041 s⁻¹		0.00641 ± 0.00098 s⁻¹	0.000144 ± 2e-05 s⁻¹	0.000201 ± 8.8e-05 s⁻¹
A42G U49G	0.00144 ± 0.00033 s⁻¹	3190 ± 1100 µM	0.000275 ± 4.4e-05 s⁻¹	0.000609 ± 9.7e-05 s⁻¹	0.0011 ± 0.00017 s⁻¹	5.36e-05 ± 2.3e-05 s⁻¹	5.71e-05 ± 1.4e-05 s⁻¹
A42G U49A	1.03e-05 ± 2.5e-06 s⁻¹						
G41U U56A C70A	0.0279 ± 0.012 s⁻¹		0.0096 ± 0.0018 s⁻¹	0.033 ± 0.0088 s⁻¹	0.0192 ± 0.0059 s⁻¹		0.00226 ± 0.00043 s⁻¹
G41A A42C	4.51e-05 ± 1.7e-05 s⁻¹			6.51e-05 ± 1.8e-05 s⁻¹	3.53e-05 ± 1.3e-05 s⁻¹		
G41C C71U	0.000207 ± 2.1e-05 s⁻¹	2580 ± 590 µM	3.67e-05 ± 8.3e-06 s⁻¹	0.000119 ± 1.8e-05 s⁻¹	0.00016 ± 1.7e-05 s⁻¹		
G40U U69C	8.37e-05 ± 1.1e-05 s⁻¹		6.56e-05 ± 2e-05 s⁻¹	9.26e-05 ± 1.9e-05 s⁻¹	7.39e-05 ± 1.2e-05 s⁻¹		
A39U U46C	0.0117 ± 0.0022 s⁻¹	2780 ± 640 µM	0.00284 ± 0.00046 s⁻¹	0.00541 ± 0.0019 s⁻¹	0.00883 ± 0.0013 s⁻¹	0.000154 ± 1.5e-05 s⁻¹	0.000743 ± 0.00014 s⁻¹
G41C U45A	0.000121 ± 5.5e-06 s⁻¹	1240 ± 160 µM	4.19e-05 ± 7.6e-06 s⁻¹		0.000108 ± 1.1e-05 s⁻¹		
A42G G66A U69A	0.0145 ± 0.0037 s⁻¹	1590 ± 490 µM			0.0125 ± 0.0052 s⁻¹	0.000356 ± 0.0001 s⁻¹	
A39U G40A	0.00855 ± 0.0042 s⁻¹		0.00165 ± 0.00021 s⁻¹	0.00537 ± 0.0012 s⁻¹	0.00952 ± 0.0017 s⁻¹	0.000239 ± 2.5e-05 s⁻¹	0.000664 ± 0.0001 s⁻¹
A39U C68G	0.000151 ± 1.6e-05 s⁻¹	998 ± 310 µM	5.37e-05 ± 7.8e-06 s⁻¹	0.000126 ± 1.2e-05 s⁻¹	0.000127 ± 1.3e-05 s⁻¹		

Variant	kcat [1]	KM [2]	self-cleavage kobs at 640 uM GlcN6P [3]	self-cleavage kobs at 2500 uM GlcN6P [4]	self-cleavage kobs at 10000 uM GlcN6P [5]	self-cleavage kobs at 40 uM GlcN6P [6]	self-cleavage kobs at 160 uM GlcN6P [7]
G41U A53G	0.00129 ± 0.00028 s⁻¹	291 ± 120 µM	0.00133 ± 0.0002 s⁻¹	0.000959 ± 0.00015 s⁻¹	0.00153 ± 0.00029 s⁻¹	0.000167 ± 2.7e-05 s⁻¹	0.000362 ± 7.8e-05 s⁻¹
A39U A48C	0.000221 ± 2.1e-05 s⁻¹	836 ± 370 µM		0.000181 ± 1.8e-05 s⁻¹	0.000196 ± 1.6e-05 s⁻¹		
A42G A48U	0.00077 ± 0.00015 s⁻¹	3220 ± 1100 µM	0.000148 ± 4.3e-05 s⁻¹		0.000576 ± 0.00013 s⁻¹		
A42G A48G	9.11e-05 ± 9e-06 s⁻¹				3.86e-05 ± 1.7e-05 s⁻¹		
A39U C50G C58U	1.28e-05 ± 4e-06 s⁻¹						
G40C U56C	6.61e-05 ± 9.2e-06 s⁻¹			4.67e-05 ± 2e-05 s⁻¹	5.45e-05 ± 8.6e-06 s⁻¹	< 1e-05 s⁻¹	< 1e-05 s⁻¹
A39G A42U	0.000818 ± 0.00016 s⁻¹	1510 ± 540 µM	0.00023 ± 5.4e-05 s⁻¹	0.00045 ± 0.00014 s⁻¹	0.000751 ± 0.00014 s⁻¹	4.94e-05 ± 1.9e-05 s⁻¹	7.49e-05 ± 2.2e-05 s⁻¹
G41U G66U	5.98e-05 ± 1.9e-06 s⁻¹	582 ± 89 µM	3.02e-05 ± 1.5e-05 s⁻¹	5.12e-05 ± 1.5e-05 s⁻¹	5.53e-05 ± 1.3e-05 s⁻¹		< 1e-05 s⁻¹
G40A C71U	0.0789 ± 0.028 s⁻¹	3660 ± 1500 µM	0.0113 ± 0.0013 s⁻¹	0.0322 ± 0.009 s⁻¹	0.0591 ± 0.0079 s⁻¹	0.000981 ± 7.3e-05 s⁻¹	0.00194 ± 0.00048 s⁻¹
A39U G59A	2.27e-05 ± 2.6e-06 s⁻¹						
A39U G43U	0.000561 ± 0.00011 s⁻¹	1770 ± 600 µM	0.000127 ± 1.3e-05 s⁻¹	0.000418 ± 4.9e-05 s⁻¹	0.00046 ± 4.6e-05 s⁻¹	1.76e-05 ± 8.1e-06 s⁻¹	5.96e-05 ± 8.5e-06 s⁻¹
G40U G41A	0.000118 ± 3.1e-06 s⁻¹	1380 ± 130 µM	3.9e-05 ± 1.1e-05 s⁻¹	7.51e-05 ± 9.8e-06 s⁻¹	0.000104 ± 9.9e-06 s⁻¹		
A39U G66C	0.0109 ± 0.0036 s⁻¹	6420 ± 2800 µM	0.00112 ± 0.00026 s⁻¹	0.00343 ± 0.00096 s⁻¹	0.0065 ± 0.001 s⁻¹	5.39e-05 ± 1.3e-05 s⁻¹	0.00046 ± 0.00012 s⁻¹
G40U U57A	6e-05 ± 6.8e-06 s⁻¹				2.24e-05 ± 1e-05 s⁻¹	< 1e-05 s⁻¹	
G40C U47G	0.000514 ± 9.8e-05 s⁻¹	1190 ± 440 µM	0.000157 ± 2.4e-05 s⁻¹	0.00041 ± 5.3e-05 s⁻¹	0.000412 ± 7.9e-05 s⁻¹		7.96e-05 ± 1.8e-05 s⁻¹

Reference: the supplement of paper PMC7125110
